B1: Tyrosine-protein kinase BTK, residues 215 to 273; numbered along this chain, Q06187 (parent)
chain: ELKKVVALYDYMPMNANDLQLRKGDEYFILEESNLPWWRARDKNGQEGYIPSNYVTEAE

± gives the uncertainty stated by the source.

Variants of B1 are the subject of this series. The series can be described thus: abundance fitness (aPCA) (normalised: wild type 0, dead -1); higher = more abundant; growth selection in yeast, the domain comes from the species named. The following applies: Homo sapiens.
As for A58V, the abundance fitness worked out at 0.001 ± 0.037.

A58I: the abundance fitness was -0.223 ± 0.071.

Consider A58L, for which the abundance fitness was -0.113 ± 0.039.

Consider A58G, for which the abundance fitness is -0.01 ± 0.036.

In the case of A58Y, the abundance fitness was -0.016 ± 0.075.

Consider L2S, for which the abundance fitness was -0.075 ± 0.04.

Take L2P: the abundance fitness was -0.136 ± 0.059.

For L2Q, the abundance fitness is -0.013 ± 0.089.

In the case of L2F, the abundance fitness was found to be 0.011 ± 0.043.

Take L2N: the abundance fitness amounted to 0.012 ± 0.088.

As to L2V, the abundance fitness is -0.116 ± 0.036.

Turning to P13Q, the abundance fitness is -0.296 ± 0.076.

Consider P13A, for which the abundance fitness is -0.082 ± 0.046.

On to P13F, for which the abundance fitness is -1.08 ± 0.27.

Regarding P13I, the abundance fitness is -0.193 ± 0.16.

On to P13R, for which the abundance fitness was -0.153 ± 0.036.

Consider P13W, for which the abundance fitness was -0.778 ± 0.073.

Regarding P13L, the abundance fitness was -0.734 ± 0.048.

For P13G, the abundance fitness was -0.068 ± 0.041.

Take P13D: the abundance fitness is -0.458 ± 0.095.

In the case of Y27W, the abundance fitness was -0.96 ± 0.08.

For Y27V, the abundance fitness was -0.022 ± 0.04.

Regarding Y27D, the abundance fitness was -0.692 ± 0.11.

On to Y27H, for which the abundance fitness is -0.754 ± 0.12.

For the variant Y27S, the abundance fitness is -0.69 ± 0.052.

Consider Y27P, for which the abundance fitness is -0.624 ± 0.07.

E26L: the abundance fitness was -0.01 ± 0.036.

In the case of E26Q, the abundance fitness was -0.079 ± 0.061.

For E26C, the abundance fitness is -0.084 ± 0.061.

Turning to E26N, the abundance fitness was -0.098 ± 0.05.

E26G: the abundance fitness was -0.191 ± 0.042.

For E26K, the abundance fitness was -0.01 ± 0.056.

For the variant E26S, the abundance fitness was 0 ± 0.037.

As for E26Y, the abundance fitness is -0.082 ± 0.058.

In the case of L19V, the abundance fitness was -0.314 ± 0.034.

On to L19E, for which the abundance fitness is -0.888 ± 0.081.

Take L19A: the abundance fitness was -0.796 ± 0.056.

Take L19F: the abundance fitness is -0.391 ± 0.067.

In the case of L19H, the abundance fitness was -0.703 ± 0.093.

As for L19M, the abundance fitness is -0.105 ± 0.041.

Consider L19I, for which the abundance fitness was -0.124 ± 0.067.

For R22G, the abundance fitness is -0.257 ± 0.033.

Take R22Q: the abundance fitness was -0.011 ± 0.05.

As for R22T, the abundance fitness is -0.037 ± 0.053.

Take R22K: the abundance fitness was determined as 0.049 ± 0.047.

On to Y11S, for which the abundance fitness is -0.161 ± 0.033.

Consider Y11M, for which the abundance fitness is -0.099 ± 0.06.

For Y11W, the abundance fitness came out at 0.017 ± 0.04.

On to Y11G, for which the abundance fitness was -0.709 ± 0.058.

As for Y11P, the abundance fitness is -0.704 ± 0.063.

As to D18T, the abundance fitness was -0.034 ± 0.043.

For the variant D18A, the abundance fitness was -0.017 ± 0.041.

As to D18L, the abundance fitness was -0.073 ± 0.032.

With D18N, the abundance fitness stood at 0.009 ± 0.057.

As to D18P, the abundance fitness is -0.469 ± 0.051.

In the case of D18K, the abundance fitness was -0.048 ± 0.044.

D18R: the abundance fitness amounted to 0.004 ± 0.031.

Turning to E59C, the abundance fitness was -0.061 ± 0.073.

As for E59T, the abundance fitness is -0.012 ± 0.083.

In the case of E59I, the abundance fitness is -0.014 ± 0.088.

Take E59W: the abundance fitness is -0.081 ± 0.064.

Regarding E59M, the abundance fitness is -0.138 ± 0.083.

For E59Y, the abundance fitness is -0.116 ± 0.097.

With E59V, the abundance fitness amounted to 0.023 ± 0.075.

Regarding N34M, the abundance fitness was determined as 0.014 ± 0.059.

N34H: the abundance fitness is -0.066 ± 0.076.

Consider N34T, for which the abundance fitness is 0.029 ± 0.054.

Turning to N34Y, the abundance fitness was -0.102 ± 0.063.

Consider E31W, for which the abundance fitness was -0.105 ± 0.036.

Consider E31N, for which the abundance fitness is -0.058 ± 0.058.

E31P: the abundance fitness is -0.162 ± 0.049.

As for E31G, the abundance fitness was -0.051 ± 0.036.

For the variant E31L, the abundance fitness was -0.122 ± 0.033.

With E31I, the abundance fitness was -0.117 ± 0.054.

With E31Q, the abundance fitness was found to be 0.072 ± 0.058.

E1R: the abundance fitness is -0.15 ± 0.099.

For the variant E1H, the abundance fitness was -0.174 ± 0.11.

Regarding E1K, the abundance fitness was -0.035 ± 0.087.

Take E1T: the abundance fitness is -0.288 ± 0.1.

For the variant Q20S, the abundance fitness is -0.007 ± 0.042.

As to Q20G, the abundance fitness is -0.001 ± 0.045.

With Q20T, the abundance fitness was -0.043 ± 0.05.

Q20I: the abundance fitness was -0.084 ± 0.055.

In the case of G24K, the abundance fitness is -0.302 ± 0.065.

As to G24Q, the abundance fitness is -0.302 ± 0.048.

For the variant G24I, the abundance fitness was -0.799 ± 0.11.

Consider G24P, for which the abundance fitness is -0.748 ± 0.092.

As to P51F, the abundance fitness is -0.054 ± 0.077.

Consider P51L, for which the abundance fitness was -0.056 ± 0.041.

Turning to P51N, the abundance fitness was -0.102 ± 0.084.

Take P51R: the abundance fitness was -0.069 ± 0.033.

As to P51A, the abundance fitness was -0.216 ± 0.049.

Turning to P51D, the abundance fitness is -0.196 ± 0.13.

Take P51I: the abundance fitness is -0.581 ± 0.12.

As to P51Y, the abundance fitness was -0.04 ± 0.14.

Consider P51T, for which the abundance fitness is -0.528 ± 0.067.

For the variant P51V, the abundance fitness is -0.379 ± 0.038.

With A16T, the abundance fitness was -0.031 ± 0.039.

Consider A16C, for which the abundance fitness is -0.063 ± 0.054.

In the case of A16P, the abundance fitness was -0.093 ± 0.043.

With A16K, the abundance fitness was -0.068 ± 0.044.

With A16V, the abundance fitness was -0.046 ± 0.03.

For the variant A16D, the abundance fitness is 0.044 ± 0.051.

In the case of V55E, the abundance fitness was -0.617 ± 0.07.

With V55T, the abundance fitness was -0.12 ± 0.06.

For V55N, the abundance fitness was -0.808 ± 0.21.

As to V55S, the abundance fitness was -0.695 ± 0.05.

M12A: the abundance fitness was found to be 0.017 ± 0.038.

Take M12R: the abundance fitness was -0.002 ± 0.029.

Turning to M12I, the abundance fitness was 0.036 ± 0.06.

As to M12E, the abundance fitness amounted to 0.017 ± 0.049.

Take M12L: the abundance fitness was 0.016 ± 0.032.

Consider M12G, for which the abundance fitness was -0.136 ± 0.036.

With S52P, the abundance fitness is -0.005 ± 0.055.

For S52G, the abundance fitness is -0.028 ± 0.036.

Take S52E: the abundance fitness is -0.065 ± 0.066.

S52F: the abundance fitness is -0.108 ± 0.049.

Turning to S52M, the abundance fitness worked out at 0.019 ± 0.07.

For the variant S52Y, the abundance fitness was -0.226 ± 0.067.

In the case of S52D, the abundance fitness was -0.232 ± 0.063.

On to S52Q, for which the abundance fitness was -0.032 ± 0.06.

As to S52N, the abundance fitness is -0.026 ± 0.072.

Consider S52V, for which the abundance fitness was -0.023 ± 0.044.

Regarding I50E, the abundance fitness is -0.95 ± 0.08.

As to I50M, the abundance fitness was -0.291 ± 0.054.

With G48T, the abundance fitness is -0.886 ± 0.069.

As to G48C, the abundance fitness was -0.793 ± 0.096.

Turning to G48I, the abundance fitness was -1.13 ± 0.18.

With G48P, the abundance fitness is -0.68 ± 0.088.

In the case of G48H, the abundance fitness is -0.856 ± 0.13.

Turning to G48F, the abundance fitness is -0.725 ± 0.066.

A7I: the abundance fitness was -0.966 ± 0.15.

In the case of A7S, the abundance fitness is -0.142 ± 0.034.

Turning to A7R, the abundance fitness is -1.04 ± 0.056.

Consider A7Q, for which the abundance fitness is -0.828 ± 0.059.

For the variant D42F, the abundance fitness was -0.843 ± 0.076.

For the variant D42N, the abundance fitness was -0.081 ± 0.071.

Take D42G: the abundance fitness was -0.103 ± 0.036.

Regarding D42P, the abundance fitness is -0.936 ± 0.12.

On to D42R, for which the abundance fitness is -0.673 ± 0.063.

D42C: the abundance fitness was -0.119 ± 0.055.

D42T: the abundance fitness was -0.065 ± 0.05.

D42S: the abundance fitness is -0.07 ± 0.039.

Consider K23D, for which the abundance fitness is -0.522 ± 0.17.

As to K23I, the abundance fitness is -0.207 ± 0.13.

As for K23V, the abundance fitness was -0.072 ± 0.038.

In the case of K23R, the abundance fitness was -0.056 ± 0.03.

On to S33W, for which the abundance fitness is -0.072 ± 0.044.

Turning to S33L, the abundance fitness is -0.06 ± 0.031.

For the variant S33H, the abundance fitness was -0.087 ± 0.068.

Turning to S33T, the abundance fitness amounted to 0.005 ± 0.062.

S33P: the abundance fitness is 0.006 ± 0.061.

S33Q: the abundance fitness is 0.016 ± 0.069.

With S33M, the abundance fitness is -0.02 ± 0.05.

Consider N15S, for which the abundance fitness came out at 0.059 ± 0.032.

Consider N15I, for which the abundance fitness is -0.079 ± 0.054.

A40D: the abundance fitness was -0.952 ± 0.17.

On to A40S, for which the abundance fitness was -0.298 ± 0.038.

A40L: the abundance fitness was -0.181 ± 0.034.

Take A40C: the abundance fitness was -0.121 ± 0.041.

With A40Y, the abundance fitness was -0.734 ± 0.086.

Regarding W37Q, the abundance fitness stood at 0.021 ± 0.058.

For W37D, the abundance fitness is -0.129 ± 0.056.

In the case of W37C, the abundance fitness amounted to 0.029 ± 0.05.

As to W37E, the abundance fitness was determined as 0.011 ± 0.054.

For the variant W37I, the abundance fitness is -0.097 ± 0.071.

Regarding W37M, the abundance fitness worked out at 0.006 ± 0.044.
